Consider 1 molecule from article PMC11863148.

In the data set the target is MERS-CoV nsp13 helicase (WT) (MERS-CoV, UniProt K9N7C7 5311-5908). Nature of the data set: EMSA. In general terms: A gel shift assay detects complexes by their altered migration in electrophoresis.
Chain of MERS-CoV nsp13 helicase (WT) (K9N7C7 5311-5908): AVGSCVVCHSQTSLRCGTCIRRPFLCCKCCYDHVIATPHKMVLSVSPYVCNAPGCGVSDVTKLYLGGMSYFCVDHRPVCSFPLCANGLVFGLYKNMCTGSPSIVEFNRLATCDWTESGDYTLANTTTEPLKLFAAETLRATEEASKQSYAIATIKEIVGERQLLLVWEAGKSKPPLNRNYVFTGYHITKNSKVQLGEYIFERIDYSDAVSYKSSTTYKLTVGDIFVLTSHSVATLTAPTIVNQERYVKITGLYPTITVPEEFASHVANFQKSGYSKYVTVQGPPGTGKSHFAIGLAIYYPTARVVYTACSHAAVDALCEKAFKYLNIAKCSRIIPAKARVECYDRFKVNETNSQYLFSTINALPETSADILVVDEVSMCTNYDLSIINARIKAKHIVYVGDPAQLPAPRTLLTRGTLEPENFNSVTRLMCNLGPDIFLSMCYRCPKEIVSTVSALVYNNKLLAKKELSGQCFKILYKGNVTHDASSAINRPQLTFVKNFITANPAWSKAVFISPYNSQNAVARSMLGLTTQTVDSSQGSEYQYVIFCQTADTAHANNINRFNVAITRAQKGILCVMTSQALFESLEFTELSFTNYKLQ

B1: EMSA partial duplex, 18 bp with 5' (dT)21 overhang (dsDNA)
DNA 1: TTTTTTTTTTTTTTTTTTTTTCTGATGTTAGCAGCTTCG
DNA 2: CGAAGCTGCTAACATCAG
B1: the binding result is recorded as “binds”.
